Results as given in the supplement of paper PMC9732359.
± gives the uncertainty stated by the source.

Assay: protein stability index of a GFP-peptide fusion (yeast GPS) (PSI 1-4); higher = more stable; sorted into four equal gates, so the index is relative within each strain
Procedure, shortened: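 Plasmids in a pooled yeast library fused tiled 17-residue yeast protein peptides downstream of GFP and also expressed Cherry. Mid-log cultures grown without leucine were sorted into four equal gates by GFP/Cherry fluorescence ratio. Each gate's plasmids were PCR-amplified and Illumina-sequenced, and reads were matched to strains by barcodes. The protein stability index is derived by multiplying each gate's read frequency by its gate number and summing the results.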

| Sequence | protein stability index (doa10∆) | protein stability index (pdr5∆) | protein stability index (san1∆) | protein stability index (ubr1∆) |
| --- | --- | --- | --- | --- |
| YNEFLYSKAGREELERV [QCR8] | 2.86 ± 0.11 | 2.73 ± 0.19 | 3.35 ± 0.1 | 2.98 ± 0.1 |
| YSLQPSVDITGGPWFTD [RPC34] | 1.89 ± 0.079 | 2.54 ± 0.12 | 2.86 ± 0.089 | 2.49 ± 0.064 |
| IPSSKYAYMMNSQSPRG [YLR018C/POM34] | 2.78 ± 0.062 | 2.69 ± 0.066 | 2.75 ± 0.044 | 2.75 ± 0.045 |
| DSILNYAKSEFDNVASV [ECM29] | 3.22 ± 0.11 | 3.14 ± 0.15 | 3.04 ± 0.087 | 3.15 ± 0.18 |
| SVEAYLVSLFEDTNLAA [HHT1] | – | 2.86 ± 0.26 | 2.59 ± 0.15 | 3.06 ± 0.14 |
| KLNIETMRKISSETDDD [DSN1] | 2.56 ± 0.074 | 2.27 ± 0.13 | 2.77 ± 0.12 | – |
| CLNTQRGDSTETSSFGS [RRI1] | 3.61 ± 0.14 | 3.25 ± 0.17 | 3.37 ± 0.084 | 3.56 ± 0.17 |
| GPSAMRLSRCIRDNKLV [RPC82] | 1.94 ± 0.14 | 2.23 ± 0.13 | 1.58 ± 0.15 | 2.15 ± 0.099 |
| IINSTALMKEKDIRSTL [RPC82] | 3.12 ± 0.19 | 3 ± 0.099 | 2.97 ± 0.093 | 3.25 ± 0.09 |
| NYIINDIKKNNKIKLNI [SRB8] | 3.16 ± 0.096 | 3.1 ± 0.16 | 3.04 ± 0.2 | 3.35 ± 0.2 |
| NIALVSKLRNNIRSQLL [SRP54] | 2.13 ± 0.069 | 2.56 ± 0.058 | 2.5 ± 0.053 | 2.61 ± 0.065 |
| TASFIPLDTIETELPTL [SMC1] | 2.58 ± 0.066 | 2.65 ± 0.078 | 2.56 ± 0.066 | 2.53 ± 0.051 |
| LNRSHFATTKAECISLI [ECM29] | 1.51 ± 0.061 | 2 ± 0.051 | 1.69 ± 0.092 | 1.66 ± 0.038 |
| NTIIRDGSKMLKRADYT [RPN14] | 2.87 ± 0.096 | 2.36 ± 0.093 | 3.65 ± 0.039 | 2.2 ± 0.055 |
| SDAQSNLGSNVRNSFPL [REC8] | 3.01 ± 0.07 | 3.12 ± 0.11 | 2.87 ± 0.082 | 3.07 ± 0.055 |
| NEAGRKLSDIFLSKPSK [SNF2] | 2.94 ± 0.08 | 3.27 ± 0.087 | 3.21 ± 0.081 | 3.04 ± 0.093 |
| ISLEALNFYITNVPKAK [SIR3] | 2.67 ± 0.065 | 2.82 ± 0.063 | 2.62 ± 0.053 | 2.87 ± 0.035 |
| ANSSTIRVTNSFALPFE [RPN8] | 2.46 ± 0.065 | 2.18 ± 0.05 | 2.73 ± 0.063 | 3.14 ± 0.039 |
| IVLSKAASALDEKEKQL [SIR4] | 3.35 ± 0.1 | 3.03 ± 0.11 | 3.04 ± 0.17 | 3.57 ± 0.21 |
| GKVRLWKATYSNEFKCM [YGL100W/SEH1] | 2 ± 0.041 | 1.84 ± 0.053 | 1.78 ± 0.048 | 2.22 ± 0.03 |
| YHTNPGHSQFTSHYQNY [RPN4] | 2.82 ± 0.067 | 2.9 ± 0.089 | 3.02 ± 0.079 | 3.04 ± 0.054 |
| KTQFSWQYYYYTLTEEG [RPS10A] | 2.06 ± 0.065 | 2.33 ± 0.052 | 2.59 ± 0.054 | 2.35 ± 0.058 |
| DQFQWILRKPGKDCKLQ [RRI2] | 2.62 ± 0.19 | 3.25 ± 0.17 | 3.26 ± 0.16 | 3.3 ± 0.16 |
| MEDKISEFLNVPFESLQ [YIL149C/MLP2] | 3.18 ± 0.09 | 3.35 ± 0.079 | 3.33 ± 0.067 | 3.06 ± 0.057 |
| RGSSSLYTLVINDAGKA [RPL38] | 1.57 ± 0.061 | 1.26 ± 0.068 | 1.17 ± 0.13 | 1.12 ± 0.086 |
| GSAITGPVGKECADLWP [RPL23A] | 2.44 ± 0.11 | 2.75 ± 0.085 | 2.83 ± 0.067 | 2.64 ± 0.064 |
